Assay results reported in patent US20110229475A1 (GlaxoSmithKline, published 2011).

Biological target: T1, human IL-8 (human, UniProt P10145 28-99, limits assumed)
T1 construct: also called hIL-8; hIL8
Assay: TRFIA, chemokine coated on plate, biotinylated anti-mouse IgG and streptavidin-europium detection
Protocol: Briefly, each antigen (human IL-8, Gro-alpha, Gro-beta, Gro-gamma, GCP-2, and ENA-78, and hIL-18 when used as negative control) is individually coated onto a 96-well immunofluorescent plate. The plates are then washed and blocked with a commercially available blocking solution. Blocking solution is emptied and samples containing the mAb are added into each well and incubated for 40 to 60 minutes (this allows the mAb to bind to the target chemokines). The plates are then washed again and a detection Ab is added to each well. […] The detection antibody is conjugated to either europium or biotin. Following another round of washing, to remove unbound detection Ab, a solution of streptavidin-europium was added to biotin detected assays. Streptavidin-europium binds to the biotin allowing for detection. After a final wash to remove unbound streptavidin-europium, or in the case of the humanized MAb assay after the europium conjugate secondary is washed, each well is filled with a chelating detergent solution to activate the europium producing fluorescence. The greater the fluorescence recorded is directly proportionate to the amount of detection Ab present in the well which is directly linked and proportionate to the amount of the chemokine binding mAb.

B1: mouse monoclonal antibody 656.35 (antibody, IgG2a, V domains shown)
VH: QVQLQQSGAELVRPGTSVTISCKASGYTFTNYWIVWVKQRPGHGLEWIGDLYSGGGYTFYSENFKGKATLTADTSSSTAYMHLISLTSEDSAVYFCARSGYDRTWFAHWGQGSLVTVSA
VL: DIKMTQSPSSMSASLGERVTITCQASQDIESYLSWYQQKPWKSPKTLIYYATRLADGVPSRFSGSGSGQDYSLTISSLESDDTATYYCLQHGESPPTFGAGTKLELKR
notes: Murine hybridoma antibody; also called 2x656.35
B1 was tested, and the “EC50 (read off the curve)” value was ~0.04 µg/mL.
